Data as given in publication doi:10.1101/099705.
Where “and” joins values, the source holds several entries; their conditions need not be identical. Identical values can stand only once. Like-named read-outs stand apart in the source and are kept apart here. One block for each molecule: values may come before it.

How the values were obtained:
[1] = molecular target: TbMP18-FL (T. brucei (strain Lister 427)); experiment: SEC
[2] = molecular target: TbMP18-FL (T. brucei (strain Lister 427))
[3] = molecular target: TbMP24-OB (T. brucei (strain Lister 427)); experiment: SEC
[4] = molecular target: TbMP42-FL (T. brucei (strain Lister 427)); experiment: SEC
[5] = molecular target: TbMP42-OB (T. brucei (strain Lister 427)); experiment: SEC
[6] = molecular target: TbMP81-FL (T. brucei (strain Lister 427)); experiment: SEC
[7] = molecular target: TbMP81-OB (T. brucei (strain Lister 427)); experiment: SEC
[8] = molecular target: TbMP18-FL (T. brucei (strain Lister 427)); experiment: SEC; remark: listed apart in the source

stoichiometry N [1]: 4
Molecule: TbMP18-FL (natural protein)

stoichiometry N [5]: 3
Molecule: TbMP42-OB (domain or fragment)

stoichiometry N [7]: 2
Molecule: TbMP81-OB (domain or fragment)

More lines, now with the values behind:

Molecule: TbMP24-FL (natural protein)
stoichiometry N (TbMP24-FL:TbMP18-FL (molar ratio)) [2]: 1.1
stoichiometry N (TbMP24-FL:TbMP18-FL (molar ratio)) [1]: 2 and 1.5

Molecule: TbMP24-OB (domain or fragment)
stoichiometry N (TbMP24-OB:TbMP18-FL (molar ratio)) [1]: 2
stoichiometry N [3]: 3

Molecule: TbMP42-FL (natural protein)
stoichiometry N [4]: 3

Molecule: TbMP81-FL (natural protein)
stoichiometry N [6]: 2

B1: TbMP63-OB (domain or fragment)
chain: SAIGASWAETELIPHAQCVSNITIVGRVLDVSQASENVSHVTVFVEGERSGEEETLTLCCFGEVSQKIRGTLKRNATIFASGTLRLHPVYEASNNKYYVSPVVHVSMPTGTLAVIT
stoichiometry N (TbMP63-OB:TbMP18-FL (molar ratio)) [8]: 1 and 1.5
stoichiometry N (TbMP63-OB:TbMP18-FL (molar ratio)) [2]: 0.67
